Target: HLA-A*02/PRAME-004 presented on cells (PRAME-004-loaded T2 cells or PRAME-004-positive tumor cell lines) (human)
Assay: cell-based or functional assay

B1: TCR R16P1E8 (TCR, V domains shown)
V domain 1: QKEVEQDPGPLSVPEGAIVSLNCTYSNSAFQYFMWYRQYSRKGPELLMYTYSSGNKEDGRFTAQVDKSSKYISLFIRDSQPSDSATYLCAMSEAAGNKLTFGGGTRVLVKP
V domain 2: EAGVAQSPRYKIIEKRQSVAFWCNPISGHATLYWYQQILGQGPKLLIQFQNNGVVDDSQLPKDRFSAERLKGVDSTLKIQPAKLEDSAVYLCASSYTNQGEAFFGQGTRLTVVE
- EC50 of IFNγ release by CD8+ T cells re-expressing the TCR; T2 cells loaded with PRAME-004 (10 µM to 10 pM): ~1 µM

B2: TCR R17P1D7 (TCR, V domains shown)
V domain 1: QTVTQSQPEMSVQEAETVTLSCTYDTSESDYYLFWYKQPPSRQMILVIRQEAYKQQNATENRFSVNFQKAAKSFSLKISDSQLGDAAMYFCAYRWAQGGSEKLVFGKGTKLTVNP
V domain 2: DIYQTPRYLVIGTGKKITLECSQTMGHDKMYWYQQDPGMELHLIHYSYGVNSTEKGDLSSESTVSRIRTEHFPLTLESARPSHTSQYLCATELWSSGGTGELFFGEGSRLTVLE
- EC50 of IFNγ release by CD8+ T cells re-expressing the TCR; T2 cells loaded with PRAME-004 (10 µM to 10 pM): 1.83 nM
